In paper PMC2064082 (The Journal of Cell Biology, 2007):

Tests used:
Ple E12–24 (M546–E1128) = molecular target: T1, Ple E12–24 (M546–E1128) (rat, UniProt P30427 546-1128); experiment: far-Western, overlay or dot blot
T1 sequence (looked up): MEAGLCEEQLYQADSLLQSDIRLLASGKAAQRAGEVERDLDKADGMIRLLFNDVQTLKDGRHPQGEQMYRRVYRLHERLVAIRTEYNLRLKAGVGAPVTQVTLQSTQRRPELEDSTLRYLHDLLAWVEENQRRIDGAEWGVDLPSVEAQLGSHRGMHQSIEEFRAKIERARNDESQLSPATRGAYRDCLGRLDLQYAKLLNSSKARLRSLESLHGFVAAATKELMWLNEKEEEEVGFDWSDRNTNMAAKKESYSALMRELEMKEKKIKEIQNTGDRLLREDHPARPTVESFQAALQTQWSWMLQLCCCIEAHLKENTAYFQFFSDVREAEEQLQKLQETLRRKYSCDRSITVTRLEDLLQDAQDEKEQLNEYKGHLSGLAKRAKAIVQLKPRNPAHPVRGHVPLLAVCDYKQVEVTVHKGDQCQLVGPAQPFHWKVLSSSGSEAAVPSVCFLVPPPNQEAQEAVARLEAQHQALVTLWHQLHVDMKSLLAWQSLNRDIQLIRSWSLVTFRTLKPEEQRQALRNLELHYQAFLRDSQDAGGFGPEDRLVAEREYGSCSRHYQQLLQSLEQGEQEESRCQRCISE

Ple R4–C (L3850–A4687) = molecular target: T2, Ple R4–C (L3850–A4687) (rat, UniProt P30427 3850-4687); experiment: far-Western, overlay or dot blot
T2 sequence (looked up): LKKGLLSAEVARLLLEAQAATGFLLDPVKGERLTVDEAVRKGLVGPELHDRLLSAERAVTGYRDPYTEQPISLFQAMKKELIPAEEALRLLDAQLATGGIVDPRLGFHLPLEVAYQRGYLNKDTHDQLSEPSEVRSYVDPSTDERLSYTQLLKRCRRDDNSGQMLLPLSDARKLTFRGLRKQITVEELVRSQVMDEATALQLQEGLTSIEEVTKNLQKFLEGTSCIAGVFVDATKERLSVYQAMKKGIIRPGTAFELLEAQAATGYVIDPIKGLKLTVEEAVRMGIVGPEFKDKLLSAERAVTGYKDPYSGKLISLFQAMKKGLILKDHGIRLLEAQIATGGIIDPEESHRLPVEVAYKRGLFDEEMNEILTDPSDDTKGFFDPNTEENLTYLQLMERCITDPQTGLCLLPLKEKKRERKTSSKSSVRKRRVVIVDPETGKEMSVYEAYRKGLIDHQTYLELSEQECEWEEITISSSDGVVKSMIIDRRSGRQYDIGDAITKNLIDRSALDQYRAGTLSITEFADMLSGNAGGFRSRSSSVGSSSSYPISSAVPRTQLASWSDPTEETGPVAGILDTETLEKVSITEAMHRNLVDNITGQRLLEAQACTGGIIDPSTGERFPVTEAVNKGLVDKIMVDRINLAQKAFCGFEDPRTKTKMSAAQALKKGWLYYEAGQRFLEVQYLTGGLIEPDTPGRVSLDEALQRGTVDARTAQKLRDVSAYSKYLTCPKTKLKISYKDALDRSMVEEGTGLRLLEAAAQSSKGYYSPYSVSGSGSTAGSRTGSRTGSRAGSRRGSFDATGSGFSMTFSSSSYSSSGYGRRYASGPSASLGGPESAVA

[1] = molecular target: T3, Dys WW-ZZ, WW-ZZ domain (A3041–M3356) of human dystrophin (human, UniProt P11532 3041-3356); experiment: far-Western, overlay or dot blot
T3 sequence (looked up): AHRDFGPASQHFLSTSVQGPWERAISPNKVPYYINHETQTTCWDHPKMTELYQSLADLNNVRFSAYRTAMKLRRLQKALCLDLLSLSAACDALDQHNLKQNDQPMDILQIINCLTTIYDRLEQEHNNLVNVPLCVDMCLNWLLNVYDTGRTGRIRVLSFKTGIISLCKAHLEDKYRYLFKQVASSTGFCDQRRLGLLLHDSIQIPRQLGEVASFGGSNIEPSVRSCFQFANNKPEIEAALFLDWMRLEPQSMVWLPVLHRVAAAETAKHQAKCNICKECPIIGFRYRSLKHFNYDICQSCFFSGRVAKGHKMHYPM

Utr WW-ZZ (A2798–M3113) = molecular target: T4, Utr WW-ZZ (A2798–M3113) (human, UniProt P46939 2798-3113); experiment: microtiter plate-binding assay
T4 sequence (looked up): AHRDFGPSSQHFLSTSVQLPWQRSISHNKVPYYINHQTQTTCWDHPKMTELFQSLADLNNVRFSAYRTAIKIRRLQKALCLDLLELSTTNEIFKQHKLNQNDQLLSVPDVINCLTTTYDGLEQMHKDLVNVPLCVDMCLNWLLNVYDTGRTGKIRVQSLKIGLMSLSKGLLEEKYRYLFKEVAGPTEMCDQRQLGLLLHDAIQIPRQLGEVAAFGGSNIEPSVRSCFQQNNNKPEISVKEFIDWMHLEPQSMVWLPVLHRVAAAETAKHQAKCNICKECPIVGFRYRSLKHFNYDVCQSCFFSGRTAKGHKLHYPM

B1: βDGcyt (L765–P895), cytoplasmic domain of human β-dystroglycan (domain or fragment, UniProt Q14118 765-895, looked up)
chain: LIAGIIAMICYRKKRKGKLTLEDQATFIKKGVPIIFADELDDSKPPPSSSMPLILQEEKAPLPPPEYPNQSVPETTPLNQDTMGEYTPLRDEDPNAPPYQPPPPFTAPMEGKGSRPKNMTPYRSPPPYVPP
binding result (Ple E12–24 (M546–E1128)): binds
binding result (Ple R4–C (L3850–A4687)): binds
binding result [1]: binds

B2: βDGcytΔDBS (L765–D857), β-dystroglycan cytoplasmic fragment lacking the dystrophin-binding site (domain or fragment, human, UniProt Q14118 765-857, looked up)
chain: LIAGIIAMICYRKKRKGKLTLEDQATFIKKGVPIIFADELDDSKPPPSSSMPLILQEEKAPLPPPEYPNQSVPETTPLNQDTMGEYTPLRDED
binding result (Ple E12–24 (M546–E1128)): binds

B3: Eu3+-labeled version of the full-length cytoplasmic domain of βDG (βDGcyt) (domain or fragment, human, UniProt Q14118 765-895, looked up)
chain: B1 chain
modifications: Eu3+ label
binding result (Utr WW-ZZ (A2798–M3113)): binds
